Data taken from patent US20180362926.

Tests used:
Assay in all cases: cell_activity
[1] = system: SBS68879 ZFN Qm5 in F1,F3,F5; FokI K525S; settings: 55266-2A-68879, T cells, 12 ug mRNA
[2] = system: SBS68815 ZFN Qm5 in F1,F3,F5; FokI R416E; settings: 55266-2A-68815, T cells, 12 ug mRNA
SBS53810 ZFN = settings: pair 53810:55255, K562, 500 ng/ZFN
[3] = system: SBS68796 ZFN Qm5 in F1,F3 (nQm5s [sic]),F4; settings: 68796-2A-68813, T cells, 12 ug mRNA; off-target at background
SBS55260 ZFN = settings: pair 55248:55260, K562, 500 ng/ZFN
[4] = system: SBS68812 ZFN Qm5 in F1,F3 (nQm5s [sic]),F4; FokI R416E; settings: 68812-2A-68813, T cells, 12 ug mRNA
[5] = system: SBS68876 ZFN Qm5 in F1,F3 (nQm5s [sic]),F4; FokI K525S; settings: 68876-2A-68877, T cells, 12 ug mRNA
SBS55255 ZFN = settings: pair 53810:55255, K562, 500 ng/ZFN
SBS55254 ZFN = settings: pair 55248:55254, K562, 500 ng/ZFN
SBS53785 ZFN = settings: pair 55229:53785, K562, 500 ng/ZFN
SBS55229 ZFN = settings: pair 55229:53785, K562, 500 ng/ZFN
SBS68957 ZFN FokI K525S = settings: pair 57071/68957, background corrected
SBS57531 ZFN = settings: pair 72732/57531, background corrected
SBS72748 ZFN FokI Q481D = settings: pair 72748/68957, background corrected
SBS57071 ZFN = settings: pair 57071/68957, background corrected
SBS53759 ZFN = settings: pair 55204:53759, K562, 500 ng/ZFN
SBS52742 ZFN = settings: pair 52774:52742, K562, 500 ng/ZFN
SBS53909 ZFN = settings: pair 53885:53909, K562, 500 ng/ZFN
SBS55287 ZFN = settings: pair 53856:55287, K562, 500 ng/ZFN
SBS53863 ZFN = settings: pair 53860:53863, K562, 500 ng/ZFN
SBS55204 ZFN = settings: pair 55204:53759, K562, 500 ng/ZFN

Sequence: AACAGGTAAGACAGGGGTCTAGCCTGGG (double strand) [TCRA site E right]
- activity [1]: 96.3 % indels
- activity [2]: 97.6 % indels

Sequence: AGGATTCGGAACCCAATCACTG (double strand) [TCRA site of 53810]
- activity (SBS53810 ZFN): 91.5 % NHEJ

Sequence: CTCCTGAAAGTGGCCGGGTTTAATCTGC (double strand) [TCRA site D left]
- activity [3]: 99.3 % indels
- activity (SBS55260 ZFN): 93 % NHEJ
- activity [4]: 99.9 % indels
- activity [5]: 99.2 % indels
- activity (SBS55255 ZFN): 91.5 % NHEJ
- activity (SBS55254 ZFN): 96.2 % NHEJ

Sequence: CTGTGGCCTGGAGCAACAAATCTGACTT (double strand) [TCRA site of 53785]
- activity (SBS53785 ZFN): 93.6 % NHEJ

Sequence: CTGTTGCTCTTGAAGTCCATAGACCTCA (double strand) [TCRA site of 55229]
- activity (SBS55229 ZFN): 93.6 % NHEJ

Sequence: GAGTAGCGCGAGCACAGCTAAGGCCACG (double strand) [B2M site of 57531]
- activity (SBS68957 ZFN FokI K525S): 91.6 % indels
- activity (SBS57531 ZFN): 95.8 % indels

Sequence: GCCACGGAGCGAGACATCTCGGCCCGAA (double strand) [B2M site of 57071]
- activity (SBS72748 ZFN FokI Q481D): 93.4 % indels
- activity (SBS57071 ZFN): 91.6 % indels

Sequence: GTGCTGTGGCCTGGAGCAACAAATCTGA (double strand) [TCRA site of 53759]
- activity (SBS53759 ZFN): 87.7 % NHEJ

Sequence: TCCTCCTGAAAGTGGCCGGGTTTAATCT (double strand) [TCRA site G right]
- activity (SBS52742 ZFN): 84.4 % NHEJ
- activity (SBS53909 ZFN): 90.2 % NHEJ

Sequence: TTCAAGAGCAACAGTGCTGTGGCCTGGA (double strand) [TCRA site F right]
- activity (SBS55287 ZFN): 74.8 % NHEJ
- activity (SBS53863 ZFN): 87.3 % NHEJ

Sequence: TTGCTCTTGAAGTCCATAGACCTCATGT (double strand) [TCRA site of 55204]
- activity (SBS55204 ZFN): 87.7 % NHEJ
